Consider three molecules from patent US20120308571A1 (FUJIFILM RI PHARMA, published 2012).

The target of experiment [1] is T1, human podoplanin (human, UniProt Q86YL7 23-162).
T1 construct: whole, on cells; also called Aggrus
T1 sequence (looked up): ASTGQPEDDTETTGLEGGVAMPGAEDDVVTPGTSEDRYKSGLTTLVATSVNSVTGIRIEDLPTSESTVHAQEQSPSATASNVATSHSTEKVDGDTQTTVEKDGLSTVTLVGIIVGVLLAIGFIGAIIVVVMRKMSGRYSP
As to the kind of experiment: flow cytometry on H226 and LN319 cells, 10 ug/ml antibody. The protocol:
First, NZ-1 antibodies, mouse chimera-type NZ-1 antibodies, and human chimera-type NZ-1 antibodies (10 μg/ml) were reacted at 4° C. for 30 minutes with human malignant mesothelioma cells (H226) and human glioma cells (LN319) which expressed human podoplanin. In addition, anti-rat IgG-FITC antibodies, anti-mouse IgG-FITC antibodies, and anti-human IgG-FITC antibodies were respectively reacted at 4° C. for 30 minutes. The fluorescence intensity was measured by FACSCalibur (BD).
(In general: A flow cytometer gives signals particle by particle.)

Experiment [2] has as its target T1, human podoplanin. In words: flow cytometry on H2052 mesothelioma cells, 10 ug/ml antibody. The protocol:
Meanwhile, the expression of podoplanin in the mesothelioma cells was confirmed by flow cytometry. Specifically, the cells were reacted with NZ-1 antibodies (10 μg/ml) at 4° C. for 30 minutes, and further reacted with anti-rat IgG-FITC antibodies at 4° C. for 30 minutes. Fluorescence intensity was measured by FACSCalibur (BD).

B1: human chimera-type NZ-1 antibody (antibody)
heavy: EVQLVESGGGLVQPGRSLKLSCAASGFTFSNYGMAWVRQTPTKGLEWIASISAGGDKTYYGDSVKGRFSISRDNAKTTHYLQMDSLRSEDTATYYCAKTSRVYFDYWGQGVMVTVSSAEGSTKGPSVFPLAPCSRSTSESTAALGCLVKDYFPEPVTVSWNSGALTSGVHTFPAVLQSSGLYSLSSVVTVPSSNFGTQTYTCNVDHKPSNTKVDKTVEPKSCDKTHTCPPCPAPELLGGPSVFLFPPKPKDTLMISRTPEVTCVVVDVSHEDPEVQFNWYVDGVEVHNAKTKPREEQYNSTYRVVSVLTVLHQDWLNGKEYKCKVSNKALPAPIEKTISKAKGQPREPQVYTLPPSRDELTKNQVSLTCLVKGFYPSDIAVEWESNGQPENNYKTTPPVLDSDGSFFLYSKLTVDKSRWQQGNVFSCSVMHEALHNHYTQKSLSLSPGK
light: QFVLTQPNSVSTNLGSTVKLSCKRSTGNIGSNYVNWYQQHEGRSPTTMIYRDDKRPDGVPDRFSGSIDRSSNSALLTINNVQTEDEADYFCHSYSSGIVFGGGTKLTVLGQPKGIRTVAAPSVFIFPPSDEQLKSGTASVVCLLNNFYPREAKVQWKVDNALQSGNSQESVTEQDSKDSTYSLSSTLTLSKADYEKHKVYACEVTHQGLSSPVTKSFNRGEC
notes: Heavy chain is the VH of rat NZ-1 joined to the CH1, hinge, CH2 and CH3 of human IgG1; also called human chimeric antibody; human chimera-type antibody
On to B1, for which the binding result with human podoplanin [1] is listed as “binds”.

B2: rat NZ-1 antibody (antibody)
heavy: EVQLVESGGGLVQPGRSLKLSCAASGFTFSNYGMAWVRQTPTKGLEWIASISAGGDKTYYGDSVKGRFSISRDNAKTTHYLQMDSLRSEDTATYYCAKTSRVYFDYWGQGVMVTVSSAETTAPSVYPLAPGTALKSNSMVTLGCLVKGYFPEPVTVTWNSGALSSGVHTFPAVLQSGLYTLTSSVTVPSSTWSSQAVTCNVAHPASSTKVDKKIVPRECNPCGCTGSEVSSVFIFPPKTKDVLTITLTPKVTCVVVDISQNDPEVRFSWFIDDVEVHTAQTHAPEKQSNSTLRSVSELPIVHRDWLNGKTFKCKVNSGAFPAPIEKSISKPEGTPRGPQVYTMAPPKEEMTQSQVSITCMVKGFYPPDIYTEWKMNGQPQENYKNTPPTMDTDGSYFLYSKLNVKKETWQQGNTFTCSVLHEGLHNHHTEKSLSHSPGK
light: QFVLTQPNSVSTNLGSTVKLSCKRSTGNIGSNYVNWYQQHEGRSPTTMIYRDDKRPDGVPDRFSGSIDRSSNSALLTINNVQTEDEADYFCHSYSSGIVFGGGTKLTVLGQPKSTPTLTVFPPSTEELQGNKATLVCLISDFYPSDVEVAWKANGAPISQGVDTANPTKQGNKYIASSFLRLTAEQWRSRNSFTCQVTHEGNTVEKSLSPAECV
notes: Rat monoclonal antibody from the NZ-1 hybridoma; also called rat monoclonal antibody NZ-1
Take B2: the binding result with human podoplanin [2] is “binds”.

B3: mouse chimera-type NZ-1 antibody (antibody)
heavy: EVQLVESGGGLVQPGRSLKLSCAASGFTFSNYGMAWVRQTPTKGLEWIASISAGGDKTYYGDSVKGRFSISRDNAKTTHYLQMDSLRSEDTATYYCAKTSRVYFDYWGQGVMVTVSSAETTAPSVYPLAPGTALKSNSMVTLGCLVKGYFPEPVTVTWNSGALSSGVHTFPAVLQSGLYTLTSSVTVPSSTWSSQAVTCNVAHPASSTKVDKKIVPRRSPPLKECPPCAAPDLLGGPSVFIFPPKIKDVLMISLSPMVTCVVVDVSEDDPDVQISWFVNNVEVHTAQTQTHREDYNSTLRVVSALPIQHQDWMSGKEFKCKVNNRALPSPIEKTISKPRGPVRAPQVYVLPPPAEEMTKKEFSLTCMITGFLPAEIAVDWTSNGRTEQNYKNTATVLDSDGSYFMYSKLRVQKSTWERGSLFACSVVHEGLHNHLTTKTISRSLGK
light: QFVLTQPNSVSTNLGSTVKLSCKRSTGNIGSNYVNWYQQHEGRSPTTMIYRDDKRPDGVPDRFSGSIDRSSNSALLTINNVQTEDEADYFCHSYSSGIVFGGGTKLTVLGQPKSTPTLTVFPPSTEELQGNKATLVCLISDFYPSDVEVAWKANGAPISQGVDTANPTKQGNKYIASSFLRLTAEQWRSRNSFTCQVTHEGNTVEKSLSPAECV
notes: Heavy chain is the VH and CH1 of rat NZ-1 joined to the hinge, CH2 and CH3 of mouse IgG2a; Light chain is the rat NZ-1 L chain; also called mouse chimeric antibody; mouse chimera-type antibody
B3: in the experiment with human podoplanin [1], the binding result is listed as “binds”.
